Assays:
[1] = tested on: MS2 coat protein; test: apparent KD of MS2 coat protein; higher = weaker reporter binding; settings: Eterna round: R101
Method: (§1)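 RNA-MaP: designed FMN/MS2 RNA switches (84 nt design region) are transcribed on-chip within common flanks and titrated with SNAP-549-labelled MS2 coat protein (about 1-3000 nM) in 100 mM Tris pH 7.5, 80 mM KCl, 4 mM MgCl2, without or with 200 uM FMN. Median apparent KD per design; activation ratio = KD,OFF / KD,ON.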

[2] = tested on: MS2 coat protein; test: apparent KD of MS2 coat protein; designed switch direction (-1 OFF switch, 1 ON switch): 1; higher = weaker reporter binding; settings: Eterna round: R98
Method: as §1

[3] = tested on: MS2 coat protein; test: apparent KD of MS2 coat protein, switch OFF state (with FMN for OFF switches, without FMN for ON switches); designed switch direction (-1 OFF switch, 1 ON switch): 1; higher = weaker reporter binding; settings: FMN input: 0 or 200 uM; Eterna round: R93 (includes R88 designs)
How it was run: (§2)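 For every design, apparent KD is the median of normalised binding-curve fits from its clusters. The RNA switches were transcribed on-chip from Illumina sequencing clusters and titrated with SNAP-549-labelled MS2 coat protein (twofold steps, 0.7 or 1.5 nM to 3 µM; 0.8–1.5 h to 10–20 min per step). Titrations used 100 mM Tris-HCl pH 7.5, 80 mM KCl, 4 mM MgCl2, without or with constant ligand.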

[4] = tested on: MS2 coat protein; test: apparent KD of MS2 coat protein, switch ON state; designed switch direction (-1 OFF switch, 1 ON switch): 1; higher = weaker reporter binding; settings: FMN input: 0 or 200 uM; Eterna round: R93 (includes R88 designs)
How it was run: as §2

Row | Sequence | apparent KD of MS2 coat protein ([1]; input ligand: FMN 200 uM) | apparent KD of MS2 coat protein ([1]; input ligand: none) | also measured
1 | AAAUAACUUGAAGGAUAUCAGGGUGCACCUCAGUAAAACUGAGGUGCACCCUGAGAAGGUCGAGGAUCACCCGACCUAAAUAAA [#SharedSequence SLExNG1: 6-2] (puzzle (switch architecture): Small Loop Exclusion NG 1) | 0.00727 µM | 0.00576 µM | –
2 | AAAUAACUUGAAGGAUAUCAGGGUGCACCUCAGUAAAACUGAGGUGCACCCUGAGAAGGUCGAGGAUCACCCGACCUAGUGAAA [#SharedSequence SLExNG1: 7-2] (puzzle (switch architecture): Small Loop Exclusion NG 1) | 0.00719 µM | 0.0068 µM | –
3 | AAAUAAUCCUUAGGAUAUGACUCCGAAACGGAGUCAGAAGGGAGGAUCACCCUCUUCAGCUCAGCGUCGAAAGACGCUGAGCAA [#SharedSequence ExNG1 - 22] (puzzle (switch architecture): Exclusion NG 1) | 0.2 µM | 0.0728 µM | –
4 | ACACGUCGUGAGAAGGAGGAUCACCCUUUCGAAAGAAAGAGCCACCGUGAAAACGGUGGCAAAUUCUAGGAUAUCACGACGUGA [#SharedSequence - IExNG2: 2] (puzzle (switch architecture): Inverted Exclusion NG 2) | 0.363 µM | 0.23 µM | –
5 | ACAUACAUUCGAGGAUAUCGGUGAUUAAUUCUACGAGAAGGCGAUUUAAGAUAUAAUAUUUUAGACAUGAGGAUCACCCAUGUA [JR_SSNG1_Sub036] | – | – | apparent KD of MS2 coat protein ([2]; input ligand: FMN 200 uM): 0.0229 µM; apparent KD of MS2 coat protein ([2]; input ligand: none): 0.0283 µM
6 | AGACCUGCUCAGAAGGAGAGUGCGAGGCUGGAAACAGCCUCGAACUAGAAACCUAGAGGAUCACCCUAGGAUAUGAGCAGGUCA [#SharedSequence - IExNG2: 10] (puzzle (switch architecture): Inverted Exclusion NG 2) | 0.00558 µM | 0.00551 µM | –
7 | AGGAGAAAUGUAGGAUAUGGGCGGGCGGACGGGCAAAGCGCGUCCGCCCGCCCAGAAGGACAUGAGGAUCACCCAUGUUUCCCU [Wow, my 5th design!] (puzzle (switch architecture): Small Loop Exclusion NG 1) | 0.013 µM | 0.0122 µM | –
8 | CCCGGUGACUAGAAGGCGCCACAUGAGGAUCACCCAUGUAUCAAAGACCGGUGAUUGCCGACGGGCGAGGAUAUAGGUGCGACG [EternaBot1154] (puzzle (switch architecture): Inverted Exclusion NG 2) | – | 0.00819 µM | –
9 | CCGAUGCAAAUAAAACAUGAGGAUCACCCAUGUGAGUCUCAUGAGGAUAUGCAGGUCAAAGACUUGCAGAAGGCAUGGCGUCGG [Eli sng3 2.08] | – | – | apparent KD of MS2 coat protein ([2]; input ligand: FMN 200 uM): 0.135 µM; apparent KD of MS2 coat protein ([2]; input ligand: none): 1.37 µM
10 | CCGAUUAGCACAGGAUAUGGGAGUUCGUAGCUCCCAGAAGGGUGAGCCAAUACAUGAGGAUCACCCAUGUGCGGUAGGUCAGGA [Energe] | – | – | apparent KD of MS2 coat protein ([2]; input ligand: FMN 200 uM): 0.056 µM; apparent KD of MS2 coat protein ([2]; input ligand: none): 0.0571 µM
11 | CCUGUCGCAUGAGGAUAUGGUCAGCUUUGCUGACCAGAAGGCAUGUCAAUAGACAUGAGGAUCACCCAUGUAGUAAAGACAGGA [Mat - Same State NG 1 - JL Mod - D36] | – | – | apparent KD of MS2 coat protein ([2]; input ligand: FMN 200 uM): 0.0362 µM; apparent KD of MS2 coat protein ([2]; input ligand: none): 0.395 µM
12 | CGGGAUAUGAAGGGCGAAAGCCCACAUGAGGAUCACCCAUGUAGAAGGCGGGCCGCAACGCGGCCCGAGGAUAUACAAUAUCCA [#my 7th design] (puzzle (switch architecture): Inverted Exclusion NG 3) | 0.0131 µM | 0.00905 µM | –
13 | CGUAGUCCGUAGAAGGGUGACAUGAGGAUCACCCAUGUGCGAGCGGAGGGAGUCAGCGGCUCGCCACAGGAUAUACGGAGCACG [Eniszabe] (puzzle (switch architecture): Inverted Same State NG 2) | 0.0288 µM | 0.137 µM | –
14 | GACUGCAGGAUAACAACCUGCAGUCACUUCUGAGGAUCACCCAGAAGGGCUGAGGUAAUACCUCAGCAGGAUAUGGAGUGUAAA [#SharedSequence IExNG# - 8] (puzzle (switch architecture): Inverted Exclusion NG 3) | 0.0701 µM | 0.0219 µM | –
15 | GACUUGGCUACAUGAGGAUCACCCAUGUUUGACUGGAUCGAUUAGGAUAUAGUGAUUUGCAACAAUUAGAAGGGAUAUUUACGG [byesamestateseeyounextround#3] | – | – | apparent KD of MS2 coat protein ([2]; input ligand: FMN 200 uM): 0.0313 µM; apparent KD of MS2 coat protein ([2]; input ligand: none): 0.0329 µM
16 | GAUCCGAGCACAGGAUAUGUUAGAGAGGGUGAGACAGAAGGGUGCUCCGGUAAGGCCAAGCACAUGAGGAUCACCCAUGUACAU [Orbezaen] | – | – | apparent KD of MS2 coat protein ([2]; input ligand: FMN 200 uM): 0.0649 µM; apparent KD of MS2 coat protein ([2]; input ligand: none): 0.0297 µM
17 | GCUUGCGACGCAGGAUAUGGGUGCCUGCACACGAGGAUCACCCGUGUAGAGGAAGCGAAAAGCUCUCAGAAGGGCGUCGCAGGC [United States 5 - Jieux - Same State NG 2] | – | – | apparent KD of MS2 coat protein ([2]; input ligand: FMN 200 uM): 0.0207 µM; apparent KD of MS2 coat protein ([2]; input ligand: none): 0.0453 µM

Row | Sequence | apparent KD of MS2 coat protein ([1]; input ligand: FMN 200 uM) | apparent KD of MS2 coat protein ([1]; input ligand: none) | also measured
18 | GGAGAUACAUGAGGAUCACCCAUGUAGGAUAUAUAGUAUAUAUAUAUUGAAAGGUAUAUAUAUAUAUAGAAGGGCGUGCACACC [#LOL-18] (puzzle (switch architecture): Small Loop Exclusion NG 3) | 0.00673 µM | 0.00907 µM | –
19 | GGAGAUACAUGAGGAUCACCCAUGUAGGAUAUCGGGCCCGGGCCCGGCGAAAGCCGGGCCCGGGCCGAGAAGGGCGUACACACC [#LOL-2] (puzzle (switch architecture): Small Loop Exclusion NG 3) | 0.00579 µM | 0.0073 µM | –
20 | GGAUAGGACAGAGGAUAUACGUGCUAGAGAUACUAGCAAAAUUUCCUCACAUGAGGAUCACCCAUGUAGAAGGCUGUCCUAUCG (puzzle (switch architecture): Exclusion NG 2) | 0.415 µM | 0.0157 µM | –
21 | GGAUCCAUCACAGGAUAUGCUGGACUUUGUCCAGCAGAAGGGUGAACAUGAGGAUCACCCAUGUAUUGGAUCCAUAUAUUUAAU [Denovo 35] | – | – | apparent KD of MS2 coat protein ([2]; input ligand: FMN 200 uM): 0.0941 µM; apparent KD of MS2 coat protein ([2]; input ligand: none): 1.29 µM
22 | GGUCGACUUCAAGGAUAUGGACUGCAAAGCAGUCCAGAAGGUGAGGAUCACCCAUCUACGGUCAGGAAACUGACCGAUCGACCA [#SharedSequence - ExNG1-8] (puzzle (switch architecture): Exclusion NG 1) | 0.117 µM | 0.0862 µM | –
23 | GGUGCACGCACAGGAUAUCCGGCGAAGCUCGUCGGAGAAGGGUGACAUGAGGAUCACCCAUGUACGUGCAGCCAAGUUUGAGAG [Laaar] (puzzle (switch architecture): Same State NG 1) | 0.0476 µM | 0.0268 µM | –
24 | GUCACGGUUAAUUCCGUGACGCGCAAUCCUUGAGGAUCACCCAAGGAUAUCGACGUCAAUGACGUCGAGAAGGUGGUUGAGCGC [#SharedSequence2] (puzzle (switch architecture): Exclusion NG 3) | 0.0235 µM | 0.0136 µM | –
25 | GUCAGCUCGUGAGGAUAUACAACACUGCUUCGGCAGUGUAUUAAGAUCACAUGAGGAUCACCCAUGUAGAAGGCACGAGCUGAU (puzzle (switch architecture): Exclusion NG 2) | 0.24 µM | 0.0139 µM | –
26 | UAAAUAGAUCCUAGAGGAUCACCCUAGGAUAUCACCGUCGAGGUGCCAUAAUGGCACCUCGACGGUGAGAAGGAGGAAAAUAAA [#SharedSequence - SLExNG3: 5] (puzzle (switch architecture): Small Loop Exclusion NG 3) | 0.0218 µM | 0.0115 µM | –
27 | UAAUAAUAAACCAAGGAUAUGGAGUUUCCAACAUGAGGAUCACCCAUGUUUAGCAUGAAAUCGAACCAGAAGGUGGAGCCAAAUA [JR_SS002_Sub1004] | – | – | apparent KD of MS2 coat protein [3]: 0.0425 µM; apparent KD of MS2 coat protein [4]: 0.0108 µM
28 | UAAUAUAUAUAGAAGGACAUGAGGAUCACCCAUGUCGCCGGGCCCGGGAAACCGGGCCCGGCCAUGUAGGAUAUAUAUAUAUUA [#This is a good prank 10] (puzzle (switch architecture): Inverted Exclusion NG 2) | 0.00517 µM | 0.0049 µM | –
29 | UACAGACAUGAGGAUCACCCAUGUAGAAUUAUGGGAGGAUAUACAAAGACGAGAGUCAGAGUAGAAGGCCUAGGAA [salish99-ss1-164] | – | – | apparent KD of MS2 coat protein [3]: 0.0646 µM; apparent KD of MS2 coat protein [4]: 0.024 µM
30 | UAUCAUUACACGAAGGAUAUCGAUAAUUGAACAUGAGGAUCACCCAUGUGCCAUCCCUUACAGUUCGAGAAGGUCGAGGGUGAAG [JR_SS002_Sub707] | – | – | apparent KD of MS2 coat protein [3]: 0.299 µM; apparent KD of MS2 coat protein [4]: 0.142 µM
31 | UUACUCAUGUAAGGAUAUGCAGCCGAAACGGCUGCAGAAGGUACUAUAAUACAUGAGGAUCACCCAUGUAAAAUAUAUAAAGUU (puzzle (switch architecture): Same State NG 1) | 0.0183 µM | 0.0293 µM | –
32 | UUGGACGUCGUAGGAUAUGUAGGAUAUUCCUACAUGAGGAUCACCCAUGUUGACAUGGAAGAAGGACAGAAGGACGAUGUCCAU (puzzle (switch architecture): Same State NG 2) | 0.00456 µM | 0.217 µM | –
33 | UUUAAUUAUACGAAGGAUAUCGAUAAUAAGACAUGAGGAUCACCCAUGUAAUAUUUUUCCAUAUUCGAGAAGGUCGCGGGUGAAC [JR_SS002_Sub601] | – | – | apparent KD of MS2 coat protein [3]: 0.0169 µM; apparent KD of MS2 coat protein [4]: 0.025 µM

Source: the supplement of paper PMC9170038
